Tests used:
PD-1 HIS = assay: BLI (Octet)
FcγRIIIa = assay: BLI (Octet)
FcγRI = assay: BLI (Octet)
ILT4 HIS = assay: BLI (Octet)
human FcRn [1] = assay: BLI (Octet); pH 6.0
human FcRn [2] = assay: BLI (Octet); pH 7.2

B1: CDX-585 (bispecific antibody)
heavy: QVQLVQSGAEVVKPGASVKISCKASGYTFTDYVMHWVRQAPGQSLEWMGVISTYHIPAVYNQKFKGKATMTVDTSTSTVYLELSSLRSEDTAVYYCAREVYGESYYFDVWGQGTTVTVSSASTKGPSVFPLAPSSKSTSGGTAALGCLVKDYFPEPVTVSWNSGALTSGVHTFPAVLQSSGLYSLSSVVTVPSSSLGTQTYICNVNHKPSNTKVDKKVEPKSCDKTHTCPPCPAPEAQGGPSVFLFPPKPKDTLYITREPEVTCVVVDVSHEDPEVKFNWYVDGVEVHNAKTKPREEQYNSTYRVVSVLTVLHQDWLNGKEYKCQVSNKALPAPIEKTISKAKGQPREPQVYTLPPSRDELTKNQVSLTCLVKGFYPSDIAVEWESNGQPENNYKTTPPVLDSDGSFFLYSKLTVDKSRWQQGNVFSCSVMHEALHNHYTQKSLSLSPGKGSSGGGGSDIQMTQSPSSLSASVGDRVTITCRASENIYSYLAWYQQKPGKAPKFLVYNADTLAEGVPSRFSGSGSGTDFTLTISSLQPEDFATYYCQHHYGTPFTFGCGTKLEIKGGGGSGGGGSGGGGSGGGGSQVQLVQSGAEVKKPGASVKVSCKASGYSFTGYTMHWVRQAPGQCLEWMGLINPYTGGTDYNQKFQGRVTMTVDRSTSTAYMELSSLRSEDTAVYYCARERPGGSQFIYYYALDYWGQGTTVTVSS
light: DIVMTQTPLSLPVTPGEPASISCRSSQSIVHSAGNTYLEWYLQKPGQSPQLLIYKVSNRFSGVPDRFSGSGSGTDFTLKISRVEAEDVGVYYCFQGSHVPYTFGGGTKVEIKRTVAAPSVFIFPPSDEQLKSGTASVVCLLNNFYPREAKVQWKVDNALQSGNSQESVTEQDSKDSTYSLSSTLTLSKADYEKHKVYACEVTHQGLSSPVTKSFNRGEC
- Kd (PD-1 HIS): 0.063 nM
- Kd (FcγRIIIa): 4910 nM
- Kd (FcγRI): 1380 nM
- Kd (ILT4 HIS): 0.305 nM
- Kd (human FcRn [1]): 2.99 nM
- Kd (human FcRn [2]): 114 nM

From US20240409639A1 (published 2024)
